Literature values, collected in PMC3373146.
Read-outs that look alike come from different tables or passages of the source.

Key:
[1] = target: KCa2.1 (SK1) (UniProt Q92952)
[2] = target: KCa2.2 (SK2) (UniProt Q9H2S1)
[3] = target: KCa2.3 (SK3) (UniProt Q9UGI6)
[4] = target: Kv2.1 (UniProt Q14721)
[5] = target: Kv2.1 (UniProt Q14721); remark: listed apart in the source

Kv2.1, sequence (Q14721 whole entry): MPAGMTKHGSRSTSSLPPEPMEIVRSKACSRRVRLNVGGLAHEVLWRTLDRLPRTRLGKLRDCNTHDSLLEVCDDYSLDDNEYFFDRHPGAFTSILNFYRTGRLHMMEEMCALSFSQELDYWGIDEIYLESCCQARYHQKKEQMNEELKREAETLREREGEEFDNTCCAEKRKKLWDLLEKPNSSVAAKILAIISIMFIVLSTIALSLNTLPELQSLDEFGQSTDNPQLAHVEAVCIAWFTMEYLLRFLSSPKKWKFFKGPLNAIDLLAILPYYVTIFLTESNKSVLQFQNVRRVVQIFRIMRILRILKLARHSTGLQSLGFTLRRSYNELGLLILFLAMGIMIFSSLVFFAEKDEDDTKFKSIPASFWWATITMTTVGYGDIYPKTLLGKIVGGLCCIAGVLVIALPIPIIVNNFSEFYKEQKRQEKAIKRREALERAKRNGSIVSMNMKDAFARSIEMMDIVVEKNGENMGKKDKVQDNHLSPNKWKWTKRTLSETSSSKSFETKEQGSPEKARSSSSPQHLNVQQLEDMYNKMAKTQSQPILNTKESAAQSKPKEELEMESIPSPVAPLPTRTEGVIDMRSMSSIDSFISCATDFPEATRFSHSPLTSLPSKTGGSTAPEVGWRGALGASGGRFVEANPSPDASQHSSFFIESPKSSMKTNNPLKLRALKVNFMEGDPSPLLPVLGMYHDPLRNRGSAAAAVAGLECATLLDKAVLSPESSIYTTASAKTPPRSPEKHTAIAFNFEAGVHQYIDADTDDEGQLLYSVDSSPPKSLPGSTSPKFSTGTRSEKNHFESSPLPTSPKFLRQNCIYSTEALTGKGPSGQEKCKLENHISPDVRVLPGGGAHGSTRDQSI
KCa2.2 (SK2), sequence (Q9H2S1 whole entry): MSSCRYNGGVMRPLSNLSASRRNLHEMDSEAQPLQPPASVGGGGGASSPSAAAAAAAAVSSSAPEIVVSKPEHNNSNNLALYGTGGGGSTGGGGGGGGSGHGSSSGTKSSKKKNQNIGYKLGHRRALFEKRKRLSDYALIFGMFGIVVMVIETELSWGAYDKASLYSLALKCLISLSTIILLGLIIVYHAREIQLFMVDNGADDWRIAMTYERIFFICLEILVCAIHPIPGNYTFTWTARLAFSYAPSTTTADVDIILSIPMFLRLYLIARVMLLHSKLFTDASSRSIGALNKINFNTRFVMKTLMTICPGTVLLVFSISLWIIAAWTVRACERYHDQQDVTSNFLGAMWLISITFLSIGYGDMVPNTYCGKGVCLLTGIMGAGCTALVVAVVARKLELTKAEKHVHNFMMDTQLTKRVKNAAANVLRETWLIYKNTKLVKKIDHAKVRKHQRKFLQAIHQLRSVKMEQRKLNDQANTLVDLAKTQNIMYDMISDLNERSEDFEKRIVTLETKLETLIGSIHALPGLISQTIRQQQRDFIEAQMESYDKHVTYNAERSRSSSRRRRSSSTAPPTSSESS
hanatoxin 2, sequence (P56853 whole entry): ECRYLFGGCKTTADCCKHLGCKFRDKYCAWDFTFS
hanatoxin 1, sequence (P56852 50-84): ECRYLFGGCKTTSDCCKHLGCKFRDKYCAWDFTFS
KCa2.3 (SK3), sequence (Q9UGI6 whole entry): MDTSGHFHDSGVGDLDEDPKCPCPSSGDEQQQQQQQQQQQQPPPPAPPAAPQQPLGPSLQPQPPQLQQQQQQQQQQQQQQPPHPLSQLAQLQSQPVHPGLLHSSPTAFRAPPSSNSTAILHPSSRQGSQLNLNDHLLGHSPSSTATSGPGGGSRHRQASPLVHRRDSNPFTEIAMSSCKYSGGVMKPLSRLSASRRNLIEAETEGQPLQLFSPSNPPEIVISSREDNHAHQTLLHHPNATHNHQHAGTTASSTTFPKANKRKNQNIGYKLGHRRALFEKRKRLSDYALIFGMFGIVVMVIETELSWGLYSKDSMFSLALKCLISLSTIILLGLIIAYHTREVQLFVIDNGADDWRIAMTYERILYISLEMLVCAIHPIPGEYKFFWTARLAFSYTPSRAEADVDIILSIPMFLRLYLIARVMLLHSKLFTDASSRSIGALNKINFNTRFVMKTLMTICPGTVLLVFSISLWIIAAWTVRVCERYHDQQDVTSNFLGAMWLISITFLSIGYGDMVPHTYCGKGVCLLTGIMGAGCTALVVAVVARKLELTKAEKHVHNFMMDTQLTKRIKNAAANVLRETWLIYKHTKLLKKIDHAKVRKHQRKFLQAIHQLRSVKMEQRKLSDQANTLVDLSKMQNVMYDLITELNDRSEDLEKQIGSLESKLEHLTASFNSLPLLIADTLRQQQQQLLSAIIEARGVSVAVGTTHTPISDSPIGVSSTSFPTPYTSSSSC
KCa2.1 (SK1), sequence (Q92952 whole entry): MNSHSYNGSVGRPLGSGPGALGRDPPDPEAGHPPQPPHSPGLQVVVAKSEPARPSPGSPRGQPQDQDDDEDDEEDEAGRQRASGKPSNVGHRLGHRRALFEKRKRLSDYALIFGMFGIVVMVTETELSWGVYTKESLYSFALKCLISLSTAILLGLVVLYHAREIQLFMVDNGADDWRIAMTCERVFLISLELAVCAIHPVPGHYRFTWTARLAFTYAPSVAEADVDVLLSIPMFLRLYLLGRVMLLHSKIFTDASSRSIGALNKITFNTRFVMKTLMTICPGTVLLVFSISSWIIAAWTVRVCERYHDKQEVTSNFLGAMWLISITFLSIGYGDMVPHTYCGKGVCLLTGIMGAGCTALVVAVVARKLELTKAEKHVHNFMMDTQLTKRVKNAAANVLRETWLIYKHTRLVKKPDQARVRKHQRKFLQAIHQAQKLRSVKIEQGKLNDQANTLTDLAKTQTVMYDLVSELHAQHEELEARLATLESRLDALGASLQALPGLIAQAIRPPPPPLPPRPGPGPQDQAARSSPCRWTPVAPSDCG

Substance: apamin (from UniProt P01500)
- Kd [1]: 390 pM
- Kd [2]: 4 pM
- Kd [3]: 11 pM

Substance: hanatoxin 1 (from UniProt P56852)
- Kd [4]: 42000 pM

Substance: hanatoxin 2 (from UniProt P56853)
- Kd [5]: 42000 pM
